Four molecules from paper doi:10.1101/2025.09.17.674891 (bioRxiv, 2025) can be followed below.

For assay [1], the target named is T1, SARS-CoV-2 RBD (recombinant) (SARS-CoV-2, UniProt P0DTC2). As to the kind of experiment: ELISA. On the technique in general: ELISA stands for enzyme-linked immunosorbent assay.
The target of assay [2] is WIV-1 RBD (recombinant) (bat sarbecovirus WIV-1, UniProt U5WI05). As to the kind of experiment: ELISA.
The target in assay [3] is Rs4231 RBD (recombinant) (Bat SARS-like coronavirus, isolate …, UniProt A0A2D1PXA9). As to the kind of experiment: ELISA.
The target in assay [4] is RacCS203 RBD (recombinant) (Bat coronavirus RacCS203). The experiment in a line: ELISA.
Assay [5] has as its target T1, SARS-CoV-2 RBD (recombinant). As to the kind of experiment: flow cytometry on cells. (Flow cytometry measures light scatter and fluorescence of single cells or particles in a stream.)

B1: V1WT_06 IgG (antibody, V domains shown)
VH: EVQLVQSGAEVKKPGASVKVSCKASGYTFSSHGISWVRQAPGQGLEWMGWISTYNGNTNSAQNLQGRVTMTADTSTSTAYMELRSLRSDDTAVYYCARGPWGYCSGTSCYYWTPDNPAYSYHGMDVWGQGTTVTVSS
VL: not shown
For B1, the “fold increase in binding of the IgG over the Fab” value in assay [1] was 1.3 fold.

B2: V1WT_06 Fab (Fab, V domains shown)
VH: EVQLVQSGAEVKKPGASVKVSCKASGYTFSSHGISWVRQAPGQGLEWMGWISTYNGNTNSAQNLQGRVTMTADTSTSTAYMELRSLRSDDTAVYYCARGPWGYCSGTSCYYWTPDNPAYSYHGMDVWGQGTTVTVSS
VL: not shown
Regarding B2, in assay [2], the binding result was “binds”.

B3: V1WT_41 IgG (antibody, V domains shown)
VH: QVQLQESGPGLVKPSETVSVTCTVSGGSITRSNYYWGWIRQPPGKGLEWIGSIFYNGNTNYNPSLKSRLTISVDTSKNQFSLKLSSVTAADTAVYYCARTAPYYYDRSGYYQKEEYFQRWGQGTLVTVSS
VL: EIVMTQSPSTLSASVGDRVTITCRASQSISTWLAWYQQKPGKAPNLLIYQASSLESGVPSRFSGSGSGTEFTLTISSLQPDDFATYYCQQYNNYPRTFGQGTKLEIK
On to B3, for which the binding result in assay [3], in assay [1] and in assay [4] was “binds” throughout.

B4: VA14_26 IgG (antibody, V domains shown)
VH: QVQLQQWGAGLLKPSDTLSLTCGISGGPFSGYYWSWIRQPPGKGLEWLGEINHSGITTYNPSLKSRGTISVDTSKRQISLKLASVTAADTAVYYCARFAYGDYGWDYSSDMDVWGKGTTVTVSS
VL: DIQLTQSPSTLSASVGDRVTITCRASQSISTWLAWHQQIPGKAPKLLIYRASTLQSGVPSRFSGSGSGTEFTLTISSLQPDDFATYYCQQYYSVRTFGQGTKVDIK
In the case of B4, the binding result in assay [5] was “binds”.
